# Assay results: the Immune Epitope Database (IEDB)
# Columns and labels:
# Assay in all cases: IEDB peptide-MHC binding, purified MHC/competitive/radioactivity; filed as Kd, often an IC50 or EC50 that approximates it; ≥ and ≤ were set here for values at or beyond the usual limits of such assays
# HLA-A*68:01 = biological target: HLA-A*68:01
# HLA-A*11:01 = biological target: HLA-A*11:01
# HLA-A*03:01 = biological target: HLA-A*03:01
# HLA-A*33:01 = biological target: HLA-A*33:01
# HLA-A*31:01 = biological target: HLA-A*31:01
# HLA-A*02:03 = biological target: HLA-A*02:03
# HLA-A*02:06 = biological target: HLA-A*02:06
# [1] = source organism: Vaccinia virus WR
# [2] = source organism: Human immunodeficiency virus type 1 BH10
# [3] = source organism: Mammarenavirus whitewaterense
# [4] = source organism: SARS coronavirus Tor2
# [5] = source organism: Mammarenavirus juninense
Sequence,Kd (HLA-A*68:01; [1]) [nM],Kd (HLA-A*11:01; [1]) [nM],Kd (HLA-A*03:01; [1]) [nM],Kd (HLA-A*33:01; [1]) [nM],Kd (HLA-A*31:01; [1]) [nM],further results
SIMETIDPVY,29,4.36,222,≥ 36600,9760,
SINSEYIESK,2580,55.4,7720,≥ 70000,≥ 70000,
SLGKAVHQV,,,,,,Kd (HLA-A*02:03; source organism: Dengue virus 4 Philippines/H241/1956): 14.6 nM
SLLNATDIAV,,,,,,Kd (HLA-A*02:03; [2]): 530 nM; Kd (HLA-A*02:06; [2]): 16.6 nM
SLVKKNKKR,≥ 77700,≥ 77900,≥ 78000,≥ 77700,≥ 77900,
SMDVLAEKK,1270,25.7,911,≥ 77700,≥ 22600,
SRIFEELVWK,,,,,,Kd (HLA-A*68:01; [3]): 477 nM; Kd (HLA-A*11:01; [3]): 259 nM; Kd (HLA-A*03:01; [3]): 200 nM; Kd (HLA-A*33:01; [3]): ≥ 52000 nM; Kd (HLA-A*31:01; [3]): 3640 nM
SSKGLACYR,5.33,80.4,12800,25.6,37.6,
SVKTQFNYFK,,,,,,Kd (HLA-A*68:01; [4]): 80 nM; Kd (HLA-A*11:01; [4]): 21.1 nM; Kd (HLA-A*03:01; [4]): 144 nM; Kd (HLA-A*33:01; [4]): 808 nM; Kd (HLA-A*31:01; [4]): 24.1 nM
SVPLPCQLMY,14400,38,413,≥ 53100,≥ 23200,
TAIAKCNLDH,,,,,,Kd (HLA-A*68:01; [3]): 7070 nM; Kd (HLA-A*11:01; [3]): ≥ 69700 nM; Kd (HLA-A*03:01; [3]): ≥ 70000 nM; Kd (HLA-A*33:01; [3]): ≥ 34200 nM; Kd (HLA-A*31:01; [3]): 929 nM
TFIDVHIPK,11.4,0.921,187,1.05,2.36,
TIEILRNYLR,1.62,48.5,2350,27.7,21.1,
TIKYSNDNR,3,228,15500,116,19.6,
TILEYLYIMR,167,2060,8990,2300,987,
TIQRFSSLR,4.86,8.93,5210,5.54,0.55,
TISSESLVY,619,10.7,21,5450,10200,

Sequence,Kd (HLA-A*68:01; [1]) [nM],Kd (HLA-A*11:01; [1]) [nM],Kd (HLA-A*03:01; [1]) [nM],Kd (HLA-A*33:01; [1]) [nM],Kd (HLA-A*31:01; [1]) [nM],further results
TLNGIMMNER,743,1330,226,1460,108,
TQSVLCVKK,228,6.64,1040,≥ 67900,1010,
TSRTLSYYK,,,,,,Kd (HLA-A*68:01; [4]): 840 nM; Kd (HLA-A*11:01; [4]): 160 nM; Kd (HLA-A*03:01; [4]): 450 nM; Kd (HLA-A*33:01; [4]): 2400 nM; Kd (HLA-A*31:01; [4]): 179 nM
TVKPGNFNK,,,,,,Kd (HLA-A*68:01; [4]): 122 nM; Kd (HLA-A*11:01; [4]): 33 nM; Kd (HLA-A*03:01; [4]): 81.5 nM; Kd (HLA-A*33:01; [4]): 1000 nM; Kd (HLA-A*31:01; [4]): 41.6 nM
VCFHEFLSSK,,,,,,Kd (HLA-A*68:01; [5]): 14400 nM; Kd (HLA-A*11:01; [5]): 4500 nM; Kd (HLA-A*03:01; [5]): 3470 nM; Kd (HLA-A*33:01; [5]): ≥ 70000 nM; Kd (HLA-A*31:01; [5]): 1530 nM
VFCNDHKGNR,4090,≥ 69800,≥ 53200,1880,428,
VLPHLCLDY,15000,421,102,1990,7820,
VQADSGCVV,,,,,,Kd (HLA-A*02:06; source organism: Dengue virus 2 Jamaica/1409/1983): 79.6 nM
VSAKQLRTR,1050,2730,12700,13400,286,
VTGFMEEEIK,1220,7.06,13300,≥ 33900,10700,
VVNARLRAK,,,,,,Kd (HLA-A*68:01; [4]): 8180 nM; Kd (HLA-A*11:01; [4]): 130 nM; Kd (HLA-A*03:01; [4]): 13.8 nM; Kd (HLA-A*33:01; [4]): ≥ 24900 nM; Kd (HLA-A*31:01; [4]): 199 nM
WLHECTDESR,273,≥ 69800,≥ 70100,254,6230,
WSRIGTAATK,786,1070,101,≥ 70000,≥ 28900,
YISRDELWAR,32.4,792,≥ 25600,0.808,1.75,
YIYKSGKLVK,539,36,7.74,7860,7800,
YMSALNHTK,,,,,,Kd (HLA-A*68:01; [4]): 3.43 nM; Kd (HLA-A*11:01; [4]): 48.4 nM; Kd (HLA-A*03:01; [4]): 108 nM; Kd (HLA-A*33:01; [4]): 1120 nM; Kd (HLA-A*31:01; [4]): 642 nM
